Experimental data taken from the DeepSol protein solubility set.

Test: soluble on expression in E. coli; label from the status in PepcDB or PDB records

Sequence: MGSDKIHHHHHHMLTLRQALLALFHQFETLFHYLEHLCRHRSAARPGRSSFLHSSVEIQVKETLIRNLWYVAGTSDEFAPGQLVGQTIVGLPLVLWRPEAGGEVVAFDGRCCHKRMPLAAGKLLADGTLECAYHGLCFDSAGKCVKIPSQPGRAIPSRAKLRPYPIVEQDGMVWIWMGDDANPALRPPRIPELASPEWEAIRVQNAEVPTNYLLLIENLLDISHFYPLHDGNIGDIANSEIPVEFSHEGVQGNRSVTSVRKAESYRHPPYLEDFFGYELVDRHHSHSMISPAAIRVDLRCAPPGRLETEDERGYILTHLITPIDERHHRWRVIAACRAGHRWPADPSVSTVARVAEKFPGVIAQDLWALTEQQKMLDLADTHYLGEMHLRADTGILKAREIVRDMVAAEAQPASQAVAA
- soluble on expression in E. coli: not soluble

Sequence: MYDSAPSDPVPFARLRFRDLQLLREIAAARSLTAVAERRGLTQPALSRTLRDIEAELGAQVFSRERGARLAPTAVGRHILARVDLLMADAGALHSELRAFEEGRGAHLRLGVIPFVSNALMQEVLKTLTGEPLRMSVSTFEGATDQLVLALRRQELDIVIGRLSADAGADTLAQEGLFSQTASIVMSEALYERRASLTLASLHGHPWVLPPASSPTRMAFVEAFVSRNAVAPVARIETTSARLVHSAISSNMASLGLLPLDIGQELERWGGVRCKAFPVPFRMPTVGLIVLAERRARAMNRVVRDVLHRCIARVAAYA
- soluble on expression in E. coli: not soluble

Sequence: MKVLAFDTSSKALSLAILEDKQVLAETTINIKKNHSITLMPAIDFLMASLDWTPKDLDRIVVAEGPGSYTGLRIAVATAKTLAHTLNIELVGMSSLLALVPHQQEGLFVPLMDARRNNVYAGFYENAKPVMAEAHLSFEEVLEKVKGTSQVTFVGEVGPFVEQIQKHLPRTDYKETLPNAANLALLAWDKEADSLHDFVPNYLKRVEAEENWLKNHTESGESYIKRL
- soluble on expression in E. coli: not soluble

Sequence: MSLEKQIESYYQEIAQLIIDMIPEEWAEVRFYAQEDHDGWKIFFFHYLSASSDEWTKDIDIRDVIKVPQDEFMEKYNELSFCISDFRKDYAEAFGEPWMSFQMTFYASGKFNIDFYYDKNPFDTFLTRLAWQYEHFGTIPEDSFYKETLNEYLEEKAQGKRYPFLEPLKEEEGHHHHHH
- soluble on expression in E. coli: soluble

Sequence: SLHLGEQIWIYQGKKKEWLLGQIPEVNSALVSLNSDNGAIEAIVGGFSFEQSRFNRATQSLVQVGSSIKPFIYAAAMNKGLSLSTTLSDTPITINKQGQKPWEPKNADKRYEGPLRLRVALGKSKNMVAIRALQMSGVDYVADYLSRFGFNPDQFMATEALALGAASFTPLEMARAYAVFDNGGYLIEPYIIDRILDNQGNELFKANPALACLECNHIDLAYQEPTYFDGVKIHDEDQLRAEIDEINANPAASNTQTEDDQEPEIATTIKPQAPSLMTESIKNDASMRYAPRVISGELAFLMRSALNSAIYGEPGQNWHGTSRAIAKAFKRKDIGGKTGTTNNSKVTWYAGFGANIVTTVYVGFDDNRRDLGKGEAGAKTAMPAWIKYMKVALADKK
- soluble on expression in E. coli: not soluble

Sequence: SEILISAVATDLISRFISSVTQNYRNHIHKEDDRRRLERILLRMHSVVEEAGGRHITNQGMILQLKGLVEGFYLGYYMLDKIKFQPPEYEVSHEIQSFALSACNSAKRFRFADAISKRTPVAFGSRSRTNLKDVVDGLETKIADMREFVILLGSHPRLPRQPYSTYLYIDNCMFGRRIEKEQVINFLLCNDPHDPYVSILPIIGPQRIGKKTLVQHACLDERVRDCFSHIFFFKEDDLKTGELSLNSKASQGKYLFVIEFIWDVDEAAWTKFQSYLQNMPATGIKVVVIGRTEDIAKFGTSQPIRVKRLSEEEYWYYFKALAFGSMDPDEHPKLASLAMQLSTEMNGSFLGATMFGELLRANPNTQFWKRILLFLRELARKHLTSSGLHPEDLFERNIPVDLSRIAVVDGQVQDFMVYDVRVAGPAEGELPKLTSRDILLGGDIPVEDKFDVLVWRSRIPPYCNYIVTYEKQKPRRMVGKRNTIYL
- soluble on expression in E. coli: soluble

Sequence: MARAVHRSGLVALGIATALMASCAFAAKDVVVAVGSNFTTLDPYDANDTLSQAVAKSFYQGLFGLDKEMKLKNVLAESYTVSDDGITYTVKLREGIKFQDGTDFNAAAVKANLDRASDPANHLKRYNLYKNIAKTEAIDPTTVKITLKQPFSAFINILAHPATAMISPAALEKYGKEIGFYPVGTGPYELDTWNQTDFVKVKKFAGYWQPGLPKLDSITWRPVADNNTRAAMLQTGEAQFAFPIPYEQATLLEKNKNIELMASPSIMQRYISMNVTQKPFDNPKVREALNYAINRPALVKVAFAGYATPATGVVPPSIAYAQSYKPWPYDPVKARELLKEAGYPNGFSTTLWSSHNHSTAQKVLQFTQQQLAQVGIKAQVTAMDAGQRAAEVEGKGQKESGVRMFYTGWSASTGEADWALSPLFASQNWPPTLFNTAFYSNKQVDDFLAQALKTNDPAEKTRLYKAAQDIIWQESPWIPLVVEKLVSAHSKNLTGFWIMPDTGFSFEDADLQ
- soluble on expression in E. coli: soluble

Sequence: MSRHLTFHIITNVPYSNLNRDDSGTPKRVSLGGALRALHSSQSIKRGIRTKYELASLDTSIRSGKLVEEVVRVGLDLKPEVDEKLLRKGAAKIIGSLTKGESSEGESARSAWMSREEITTAAQTVIDGQEDSDFIQDNRTGSLAIAAFGRMFANAPKKNTEAALAVSPGVTTHAVTIETDYFSTVDDVREREHDSGATFLGVARYVNGTFYRTVSIDKEQLRESWSGFGQEESVDNLRELIKAIVYGAPRGKENSTAPYTLPSLVFAEEQHYRTAYSFETPVLVGKDGGFEFPTICELDRQFARARSFDKGNFGPLEVVSGTAVLEDEQFEGVQRSDLNGLIEAVVNWVTND
- soluble on expression in E. coli: not soluble

Sequence: MGSDKIHHHHHHLFTSLVKQAEEMGLLDLSSVAIDATKVEAYEKSVPRKNIIQNGNAADWGIKSDTNGNPIKWFGYKLHIGTDVRSGLPIAMKVTPANYSDSSVALELVEKCCANTQSKIVYFLMDAGYDHREIYSVIRDKYHAQAIIALNKRGAKQPPEGFDWDGTPICSARYRMVYWGSYQGVNKFRCPHIMGKCDCPFGSAWCSDSNYGMVVKTKVKDDPRLFSSPHRGSANWQKQYNLRTYSERCFSRFKENLGLEDGLNVRKITKVETHAYLCAITMIAAVIAINQDSSTRSSAA
- soluble on expression in E. coli: not soluble

Sequence: SFRRKLTALEYHNPTGFDCKDETEFRNFIVWLEDQKIRHYKIEDRGNLRNIPSSDWPKYFEKYLQDVNCPFSVQERQETVDWLLGLAVRFEYGDNVEKYRNCKPVTETNDVQKSADPLINLDSNNPDFKAGVLALANLLKIQRHDDYLVMLKAIKILVQERLTPDAIAKASQAKEGLPVTLDKHILGFDTGDATLNEAAQVLRLLHIEELRELQTKINEAIVAVQAIIADPKTDHRLGKVGR
- soluble on expression in E. coli: soluble

Sequence: MLSVEKFRVGERVVWIGVIFSGRVQGIAFAFDRGTLMKRIHDLAEHLGKRGVSISLDVQPSDYPEKVFKVLIGELDNASFLRELSFEGVTPFEKKVYEWLTKNVKRGSVITYGDLAKALNTSPRAVGGAMKRNPYPIVVPCHRVVAHDGIGYYSSGIEEKKFLLEIEGVKEWTS
- soluble on expression in E. coli: soluble

Sequence: MVRVAVIGGSGVYDFPAENKRELTVETPYGKVNLTIGHVAGEEVAFLARHGKGHSVPPHKVNYRANIWALHELGVERIVATSAVGSLNPNMRPGDFVILDQLIDFTVSRPRTFYDGEESPHDRKFVAHVDFTEPYCPEIRRALITAAKDLSLPYHPKGTYVCTEGPRFETAAEIRAYRILGGDVVGMTQCPEAALARELEMCYATVAIVTNYAAGISGKKLTHAEVVELMNKKTREITALITKAIPLIPKERNCPCKDALKGATG
- soluble on expression in E. coli: soluble

Sequence: MGSDKIHHHHHHMAQTVSIIVSPEDQVRLAEVIGDRNSPQKHVQRARIVLHSAEHRPVLEVARDIGISRPAVWRWQLRYAEQGVDGLLRDKTRKPGKPPLPLGTVARVLALPCSNPPGSVTHWTGRAVAKAVGISLRAVQRIWDAHHLQPHRLRTFKKSKDPAFTEKVEDVVGLYMEPPCHAVVLSIDEKSQIQALDRTQPGLPLKPGKCATMTHDYKRNGTTTLFAALNILDGTVLGRCMQKHRHQEFIKFLNAVERAVPAGKIIHAILDNYGTHKHPKVRQWLADHPRWVFHFTPTL
- soluble on expression in E. coli: not soluble

Sequence: MKSMVEMQREVDEYIGQFKTGYFSPLANLARLTEEVGELAREINHTYGEKKKKDSEEANTIKAELGDNLFVLLCLANSMGIDMTESFNETMEKFNTRDKNRFERKLEHHHHHH
- soluble on expression in E. coli: soluble

Sequence: MSPLTQFKFFLWFFSHFKVALIGYLKPKLIQLTDNEIVVRLPLTRRSRNHLHSMYFGALAVGADIAGGLHGFYHAKQAKCKVSLAFKSFQAQFLRRPESDVYFICTEGDVVKKMIEESKKSGERINKPIHIKAYINYLTHPEEIADFILELSLKVIKLEHHHHHH
- soluble on expression in E. coli: soluble

Sequence: DQVLKGAALVGHNVLVPSAQVAIDATGSAKGVVAATSAGFVNFEITDANGTFVKQLSVPASAAGEVSFAWDGTDANGNRMAAGKYGITATQTDTAGAKSKLATYVDAPVDSVTIGSDGLYLNLTGLGTSPLANVLRVS
- soluble on expression in E. coli: soluble

Sequence: MSLTQDYELVVKGVRNFENKVAVTVALRDKKRFDGEIFDLDISLDRVEGAALEFYEAAARMRIRQVFLDVAAGLCVGDEQSPEKRPIILEAQNVWITYKGKLPGRITGSLKTPPTALRSEGHHHHHH
- soluble on expression in E. coli: not soluble

Sequence: MNTKARKYIPLTEATYYILLSLVKPMHGYGIMQLVEEMTNGEVKLGPGTLYGNTTKLLKEKLIVEVASTDRKKCYELTPFGKEVLELEYNRLQRSVRNGNSILGE
- soluble on expression in E. coli: soluble

Sequence: KNFPVLHLHREDFHDIRGTISLHLKTGFPMGFQMSVMCIGQLSMQTVVNSLGTAAVAGYTAASKADQLSVLVNNAMMTAISNYVAQNFGAGKRERIRQGVR
- soluble on expression in E. coli: not soluble

Sequence: MDSDEVRKRKEYAERKVKERHAALRKEAEEKRKHTVEHRERVQSVLKREQIALQKRMQQLNEDEERKKVTLAKQHEVSSRIAAITKSPKSFAFGSSTPRTLAYLDNLPKSEQQYDKKLRPLDQGPSQTTSPTSTTSNTTKMGRLSMTPQRAPPASHRPAPAMASMTTSMYVTSSAPSTRQAKSISKPAAVTTKKVGSMMTQSVYTPTSRPATSSRLTMKQPARGASTSAARPNTATPSSSNNRRSMDQRKPPMPRKLPFGKPEAARKSASPVAAQEPTAPVVVVAPVEAIPEVPAVQEEVLTVEEPAAPAREAVVEEAPEAVVEQEEITVAPEAVVAEEQQIAPEATPTVIEEHHNEVTVAPEAPEIQEPSEPATEPIPEPNEPKDEEIQRNEEMFHEDTSESHLESSTNTSLADELISIGIDQSQEILPSKPEILELHYPLVEEQNAVIAPVGAGEGSGVNDLIGVFGNDFINQNQPPPQQQQQQQRLVQFDEDTDSGKASPTSSETSSTTDEVTPRGAIEEEAAAEKITAPRVLPIVRSAEDIARKEKEIRESEERKSRLAAILAKSRGMASPMTNTLPPTADDIKGRCSHLHPLKRLPKRHRMSLEEQMMCSPVSLR
- soluble on expression in E. coli: not soluble

Sequence: MGSDKIHHHHHHMMFEFNFARAMASLREEYAKDAKINIQHVWQNETAAVIAKALATEVSFDNAMFVENKPMRISDQQIRQLPVEAQKDLQQKILQNAANGIGFLYGSHLVGGLDGKPSPELLTSLHRFINSPDMFKFIQSITGIEGICYASLQASRYIQGNFLTRHNDVVESEGRKVAFVFGFTPEWHPDWGGLLQFYTPKGVLTDTWVPTFNNLALFDVHHPHSVSFVAPFAKRPRFSVTGWFRTIAPSK
- soluble on expression in E. coli: not soluble

Sequence: MSLSTEPLASRMRPKNIDEIISQQHLVGPRGIIRRMVDTKKLTSMIFYGPPGIGKTSIAKAISGSTQYKFRQLNAVTNTKKDMQLVVEEAKMSGQVILLLDEIHRLDKAKQDFLLPHLENGKIVLIGATTSNPYHAINPAIRSRAQIFELYPLNDEDVRQALTRAIEDDENGLKTYQPKIDEDAMTYFSTQSQGDVRSALNALELAVLSADNDKDGYRHVTLQDAKDCLQKGAFVSDKDGDMHYDVMSAFQKSIRGSDVNAALHYLARLIEAGDLPTIVRRLLVISYEDIGLASPNAGQRTLAAIESAERLGLPEARIPLSQAVIELCLSPKSNSAMSAIDSALSDIRNGHVGQIPNHLKDGHYQGAKDLGRSIGYKYPHQYVNGYVSQQYLPDKLKNKIYYEPKTTSKSEQQLKEIYNNLLKEGHHHHHH
- soluble on expression in E. coli: soluble
